Measured values reported in the DeepSol protein solubility set.

Assay: soluble on expression in E. coli; label from the status in PepcDB or PDB records
With “MSLRKFIDLHLHLDGSVPVSTVKKLMQEHDLPIPTDQELRQELSVDSSCKSLDQFLEKFALPNKLMQTRHDLETIVYDLLTELKAQGLVYAEIRFAPQLHTKEGLTQEDAIKAAISGLNKFLYDQKEKNDSPELHAGLILCLMRFSNNQKENIETVELAKKFLNKGVVGLDLAGAEGPIPNIKYKSFFNQAQQLGVPYTIHAGEADGPDSIRQALAMGAKRIGHGIRCTEDTQLTQELIDQQIVLECCATSNMNTKAFDQIDSYPIKKLLHKGMKVTLNSDDMTVSDTNLLHEYKVLEKRTDLTPEEETTLYLNAVDAAFTTPDEKIRLRAFLQKEGHHHHHH” the “soluble on expression in E. coli” value was “soluble”.
For “VGTIDQLVKRVIEGSLSPKERTLLKEDPAYWFLSDENSLEYKYYKLKLAEMQR”, the “soluble on expression in E. coli” value was “soluble”.
For “MSLGAALSDTNYAVIYDLHSHTTASDGLLTPETLVHRAVEMRVGTLAITDHDTTAAIPAAREEISRSGLALNLIPGVEISTVWENHEIHIVGLNIDIAHPAMRDFLAQQTERRQARGRLIAERLEKAHIPGAWEGALRLANGGAVTRGHFARFLVECGKAATMADVFKKYLARGKTGYVPPQWCTIEQAIDVIHHSGGKAVLAHPGRYDLSAKWLKRLVAHFADHHGDAMEVAQCQQSPNERTQLATLARQHHLWASLGSDFHQPCPWIELGRKLWLPAGVEGVWQTWEQPQISEGHHHHHH”, the “soluble on expression in E. coli” value was “soluble”.
For “MGNVMEGKSVEELSSTECHQWYKKFMTECPSGQLTLYEFRQFFGLKNLSPSASQYVEQMFETFDFNKDGYIDFMEYVAALSLVLKGKVEQKLRWYFKLYDVDGNGCIDRDELLTIIQAIRAINPCSDTTMTAEEFTDTVFSKIDVNGDGELSLEEFIEGVQKDQMLLDTLTRSLDLTRIVRRLQNGEQDEEGADEAAEAAG”, the “soluble on expression in E. coli” value was “not soluble”.
In the case of “MASIKLKFRPSSVKGKKGVLSYQIIHYRLTRLIKTSYRIMPSEWDDSTGSLLISTQSECKARLLLIRDQTNWEMTRLQGIINDLERTGVEYTIDDIVASFRKIPSVESVFNFMQRCINKLERQKRGRTAEGYTSTMNSFIQFRKNEDLSFEAFDSELMEMYEAYLKEKGLVKNSTSYYMRIWRSVYNLAVEQGYTTDKKPFKHVYTGIDKTVKRAVPFKIIKMIKELDLSFEPQLELARDIFLFSFYTRGMSFIDMAHLKKSNLQNGILTYSRKKTGQRLTILWEELMQEIVDKYKDDTSEYLLPILRYCDINDRKQYKLRAKQIGRGLNKIGLRLELKAPLTFYVARHSWASIAQDRKVSTDIIREGLGHDNEKTTHIYLASISTSQIDRANQIILRGL”, the “soluble on expression in E. coli” value is reported as “not soluble”.
With “SSPATPVPPDSILESPFEEMALVRGGWLWRQSSILRRWKRNWFALWLDGTLGYYHDETAQDEEDRVVIHFNVRDIKVGQECQDVQPPEGRSRDGLLTVNLREGSRLHLCAETRDDAIAWKTALMEANSTPAPAGATVPPRSRRVCPKVRCTTLSWNPCKVERRIWVRVYSPYQDYYEVVPPNAHEATYVRSYYGPPYAGPGVTHVIVREDPCYSSGAPLAMGMLAGAATGAALGSLMWSPCWF” the “soluble on expression in E. coli” value was “not soluble”.
In the case of “KMKNWIKTVCFLLWTCVMCTACIDDDVEEGTVDLQTGESIPVFSVVMDDGQIITSETLKGEVSLIVFFHTGCPDCRKELPVLQKIYTDYGRRIRMVCISREESSAEIVRYWDENHLTLPYSAQENRTVYYQFAKSGIPRVYVIDKELVIRSVFTDNPLASYEDLAEAITASL”, the “soluble on expression in E. coli” value is reported as “not soluble”.
In the case of “MKYDTSELCDIYQEDVNVVEPLFSNFGGRASFGGQIITVKCFEDNGLLYDLLEQNGRGRVLVVDGGGSVRRALVDAELARLAVQNEWEGLVIYGAVRQVDDLEELDIGIQAMAAIPVGAAGEGIGESDVRVNFGGVTFFSGDHLYADNTGIILSEDPLDIE”, the “soluble on expression in E. coli” value is reported as “soluble”.
With “MSRRASKRPAPYPLLCEQKPEDLLVAPVEHKVYQDFEPKRPREFSPVMAQSLPPGEIDFQPSKIIFNAPYNENQESKIKLINTSALRIAYGINTYMKRLRVDTMCTPNCGVLDPSEEILLTISCDAFAFGQVDTTNDRITVEWTNTSEGSTKQFCRDWLDGDGMVRRKTLPIEYSSSPIAQTSSAPLLQASKHGMWLPIGFAASELYDYAKGEPLDRKTCEKNLEKLIKNDRDVDYYEWLNFAKRCRTQNQNLMEEMALGMAFTTAMANKQHRKISRKAEKITEPITTNKAFSIDSAEKFDRALTLPSRKWFMISDVVTDGDVSNWSTANLVTLVRALARTVFDKVAIADPHMMCYATSQNASTYIPIARDFFEGFAEYILGGFGEEQSRDLKFRVRKLVTDVMGNKLDRVRGRHNKMYGNEASEDATRWLREQLRKEDGELKESRLIFPNGSEMMCNYQVNEENPEGSIKSEIFNDEEEVEME” the “soluble on expression in E. coli” value was “not soluble”.
In the case of “MGSDKIHHHHHHMKHLLAGILVWVIWGLCSCQSDGKVIIPSPIYVDNHYHGPADPEITWNPKTEEWMIFYTSRRPFKDQASYVGTPVGVAVSKDFVHWKFAGYCSFDGVGGQPDSEKTYWAPGVIVEGDSAHMFVTLKDDSTPVWGGPSNIVHFSAPLEDMISGWRRVNTVVDTPISIDATVVKNGDRWDMWYRDRPTEDTGGLYYAQSNDLYHWTLKGLAKGDINNVEVTKHTYQEGAYAFQWKGYFWIIADPHKGLAVYRSKDAENWEYQGIVMYEPGTRFFDNTRARHPSVIIRNDRAFIVYHVQPFLGYNPNTHEAGDDVYQKLSFLQMAELEFKDGKLICDRNKVLYK”, the “soluble on expression in E. coli” value is reported as “not soluble”.
For “MPKNTPIIRSLLDTDLYKFTMLQVVLHQFPAAHGEYEFRCRNHPDTPLTQLKQQLETQLDLLCELRFSQDELDYLRGLRFIKSDYVDYLELFHLQRRFISVSEEGEQLAIRIKGPMVQAMFFEIFVLAIVNELYFRPLDSKAVREEGRRRLEAKLAELERFQREEAPGQRFPLLIADFGTRRRFSRDWQAHVVERLNHALPQVFRGTSNVYLARKLGITPIGTMAHEFFQAFQALGVRLRDFQKAALESWVQEYRGDLGIALTDVVGMDAFLADFDLYFAKLFDGLRHDSGDPYIWGEKAIAHYRKLRIDPATKMLTFSDGLSVDSALQLQRHFSPHIQVSFGIGTHFTNDMGLEPLQIVLKLVSCNGQPVAKLSDSPGKTMCSDETFLAYLRQVFKVPALALEHHHHHH”, the “soluble on expression in E. coli” value was “soluble”.
In the case of “QGVRTFVDPFTFEDPNQAVREFAKEIDASCIKIEKVIGVGEFGEVCSGRLKVPGKREICVAIKTLKAGYTDKQRRDFLSEASIMGQFDHPNIIHLEGVVTKCKPVMIITEYMENGSLDAFLRKNDGRFTVIQLVGMLRGIGSGMKYLSDMSAVHRDLAARNILVNSNLVCKVSDFGMSRVLEDDPEAAYTTRGGKIPIRWTAPEAIAYRKFTSASDVWSYGIVMWEVMSYGERPYWDMSNQDVIKAIEEGYRLPPPMDCPIALHQLMLDCWQKERSDRPKFGQIVNMLDKLIRNPNSLKRTGSESS”, the “soluble on expression in E. coli” value is reported as “soluble”.
In the case of “MGSDKIHHHHHHMANNIQGFVMIGAQAIVFSITNLRTLKTIERGRYPVAIGDDFYAEHEILPDTVDAIVQAFDAINQIFKDYGVPTVNVFASTSWAEADNAEFVRDQLYTRTGWLIKTTSLSEEAFFRTQAIMVKFPQFKSITQKGTVLIDISSGSVELTTFSNGVFGFSRNLSLGPLRVYEIMSDVQRSVTNYVEVMRDYIDSRLLDFMRLLPQGVEYTNMILMGSNLSIFQNIIPEGKHQVETDRPGFDLLYDEVTKASDQYLADTYDLTSDQTSLVLPTVLLVYRLVETLNSQSIWISDLKAIDGIEVNAAHEGGFKKLGFDPNEEIVISANNLAERYQVDEAHMQATRTVALQLFDRLKKLHGMGKRERLLLEVAATVSDIGSYIETHKHYAHSNYIIKASEIMGLNDLEVTMVATITRFHSSITPQSDLKNFPTMSTENRLVVAKLSALLRVADSLDASRQQKIQQLRVSVKPNEVLLTARADDDIELERWTLARKGKFFSEVFGLGLELKGRNIL”, the “soluble on expression in E. coli” value is reported as “not soluble”.
With “MSHLNYNHLYYFWMVCKQGSVTKAAEALFLTPQTVTGQIKALEDRLDGKLTKRNGRNIEPTELGQLIYKYADRMFGLSYEMLDIVNYSQQANVLFDVGVADALSKRLVSKVLSTTVPEDASIHLRCFESTHELLLEQLSQHKLDMILSDCPVDSSQNSGLFSKKLGECEMSFFCSKELKGVTFPEVLEKHKVLIPGSRTSMGRKVVQWCDQQGVTPNILGEFDDVALMKAFARENNAVFLAPSVYMNEADSDLSLHKIADVRDLKEEYYVIFAERMIQHPAVKSICEADFSHLFDF” the “soluble on expression in E. coli” value was “not soluble”.
For “MEPPLILIVEDEKDIARFIELELQAEGYRTEVAHDGITGLSKFREVSPNLVILDLMLPVMDGIEVAKRIRKTSNVPILILTAKDRVEDKVAGLDAGADDYLVKPFSIEELLARVRAHLRRVTPAITGEIRVADLIINLEGREVFRGNRRIELSNKEFELLELLAKNPGKVFSRYEIEEKVWPGYQGGSNVVDVYIGYLRKKLEAGGERRLIHTVRGVGYVLRED”, the “soluble on expression in E. coli” value was “soluble”.
With “MGSDKIHHHHHHTIVSCSDDKGEDGYNPNLPVRISELSPQEGGYFDKVILQGENFGNNPKKVRVFFNKKEAIVVGASGDRVLVHVPKLPGDDCKIGMLLNGNTTDTIFAEKHFAYEKNYQLIYVAGQLNSNTETFVEGSLETTTFANSMQHLACDPSGVIYMNHKNQVKVAVLFTLMNLRTTLSFWIMEHLLKTEARLALRIMMTKQRRFTSVRTMLHFFGKLILRIHGLL” the “soluble on expression in E. coli” value was “not soluble”.
In the case of “MSPVVSEASPERWDDETDVLVIGSGAGGLSAALFAAQAGLRVLICEKLAYVGGTTATSGGGIWVPGTKAGLAAGDTLEAARTYLKALLGDFYQEEVIDTYLATGGKVIDFLNENTEVKFDLSSWPDYRSSLPGGATRGRSLFPQPFDGKKLGRNFSLLHPPLHRLMVLGGLMLGPEEVHDFLRPFSSPRALMRVLRKLLRYGMDRIRYARGTDLRSGNALAARLLYSVDKLGCRILTQADLESLAIDHDRVIGATVVVGGVPKRIRASKAVLLATGGFAHNQEMLRRYGPATPHRFSLCNPACTGAGIQAALDAGASVDRELSSVGFWTPASASREKNGADTPVIYSYLDRGRPGVIAVNEQGERFVNEANSYHDIVTAIFANGGADGKPFYFITDREFVRRHGLGLIRPWPWNRSLRPWIRRGYITVASTLDKLGPKIGIDPGALAAAVQRHNQSARTGQDPDFHKGASAYNRMFGHNMIWPNPNLAPIETPPFVALRIHPATIGTAMGLKTSASGQALNAAGQPISGLYACGNDQASPFRGFYPGGGSTLGPAIVGAYLAVQSLSKQLEHHHHHH”, the “soluble on expression in E. coli” value is reported as “not soluble”.
For “MGSDKIHHHHHHMIRGEMTMPSLTFQEIDNHLMNDNKPSNFIIELNKAGIIETEYPFTLLGALKDTPQSPKHHPEGSVWNHTLMVLDNAAERKHLSQNPQVLMWAALLHDLGKAPTTRVRKGRITSYDHDAVGEKLAGQFLRELTRDERFIHQVAKMVRWHMQILFVVKGLPFANVKKMAAEVSIEEIALLGFCDRLGRGEMTPQKKQEEEQTIEKFLVRCMEILQG”, the “soluble on expression in E. coli” value was “not soluble”.
In the case of “MSLSDRLTAFKELIQAGGAKRPADLIIKNGQLVNVMTAEIYPAEVAIYQGKIVAVDPDVSAYQGTETRVIDAKQQYIVPGLIDGHIHVECSKLSMTSFAEAVVPHGTTSIISGLDEYISVIGVDGLSEIFKEVDQLPMRVFWGAPFKTPYTIPASTIADNIDSTVQAQLQKRSDVYGVWETVREAVETLDEDTLKTLLNAQDNHVPVWGCAPMATGTKLNEYLMSGVRVDHESYDHQELLEKVRKGINVVIRESSVTHFLAENIRAITETNGQIARHVSFCTDDVNAMDIVNKGHLDHLVRLAIAAGVAPMTAIQMATINSAEAYRIDDQVGLIAPGRNADILLVSDLEAFEIKRVLAKGQPVATDGHINQSIERPVRPASLANTIIREAVQASDFEYHVAADASQVTVQTIASEGPFVRHAKTKTLTVEDGIVQIDPAKDVALISVLERFGKNGNQSLGFTSGWTLKKGAMASTAAPDDNNIIVMGVNPDDMALAVNTLIERDGGQVVVADGQILSFLPLPIAGIVSDVTPAELAVQEEGILKASQAIGSEVVDPMFYMTFLPITAIPDLAITDLGNVDCNELRLFDPILTIQEGHHHHHH”, the “soluble on expression in E. coli” value is reported as “soluble”.
